Assay results as given in patent US20090304686A1, “INTERFERING IN ACTIVATION OF AN IMMUNE CELL BY INFLUENCING INTERACTION OF LAIR AND COLLAGEN” (UNIVERSOTAIR MEDISCH CENTRUM UTRECHT, priority 2006, published 2009).

T1: human collagen XVII (Homo sapiens, UniProt Q9UMD9)
T1 construct: Full-length human collagen XVII, HIS-tagged human collagen XIII, and human KIR3DL1 were kindly provided; expressed in transfected cells; host or cells: Ba/F3 (retroviral transduction)
T1 sequence (Q9UMD9 1-1497): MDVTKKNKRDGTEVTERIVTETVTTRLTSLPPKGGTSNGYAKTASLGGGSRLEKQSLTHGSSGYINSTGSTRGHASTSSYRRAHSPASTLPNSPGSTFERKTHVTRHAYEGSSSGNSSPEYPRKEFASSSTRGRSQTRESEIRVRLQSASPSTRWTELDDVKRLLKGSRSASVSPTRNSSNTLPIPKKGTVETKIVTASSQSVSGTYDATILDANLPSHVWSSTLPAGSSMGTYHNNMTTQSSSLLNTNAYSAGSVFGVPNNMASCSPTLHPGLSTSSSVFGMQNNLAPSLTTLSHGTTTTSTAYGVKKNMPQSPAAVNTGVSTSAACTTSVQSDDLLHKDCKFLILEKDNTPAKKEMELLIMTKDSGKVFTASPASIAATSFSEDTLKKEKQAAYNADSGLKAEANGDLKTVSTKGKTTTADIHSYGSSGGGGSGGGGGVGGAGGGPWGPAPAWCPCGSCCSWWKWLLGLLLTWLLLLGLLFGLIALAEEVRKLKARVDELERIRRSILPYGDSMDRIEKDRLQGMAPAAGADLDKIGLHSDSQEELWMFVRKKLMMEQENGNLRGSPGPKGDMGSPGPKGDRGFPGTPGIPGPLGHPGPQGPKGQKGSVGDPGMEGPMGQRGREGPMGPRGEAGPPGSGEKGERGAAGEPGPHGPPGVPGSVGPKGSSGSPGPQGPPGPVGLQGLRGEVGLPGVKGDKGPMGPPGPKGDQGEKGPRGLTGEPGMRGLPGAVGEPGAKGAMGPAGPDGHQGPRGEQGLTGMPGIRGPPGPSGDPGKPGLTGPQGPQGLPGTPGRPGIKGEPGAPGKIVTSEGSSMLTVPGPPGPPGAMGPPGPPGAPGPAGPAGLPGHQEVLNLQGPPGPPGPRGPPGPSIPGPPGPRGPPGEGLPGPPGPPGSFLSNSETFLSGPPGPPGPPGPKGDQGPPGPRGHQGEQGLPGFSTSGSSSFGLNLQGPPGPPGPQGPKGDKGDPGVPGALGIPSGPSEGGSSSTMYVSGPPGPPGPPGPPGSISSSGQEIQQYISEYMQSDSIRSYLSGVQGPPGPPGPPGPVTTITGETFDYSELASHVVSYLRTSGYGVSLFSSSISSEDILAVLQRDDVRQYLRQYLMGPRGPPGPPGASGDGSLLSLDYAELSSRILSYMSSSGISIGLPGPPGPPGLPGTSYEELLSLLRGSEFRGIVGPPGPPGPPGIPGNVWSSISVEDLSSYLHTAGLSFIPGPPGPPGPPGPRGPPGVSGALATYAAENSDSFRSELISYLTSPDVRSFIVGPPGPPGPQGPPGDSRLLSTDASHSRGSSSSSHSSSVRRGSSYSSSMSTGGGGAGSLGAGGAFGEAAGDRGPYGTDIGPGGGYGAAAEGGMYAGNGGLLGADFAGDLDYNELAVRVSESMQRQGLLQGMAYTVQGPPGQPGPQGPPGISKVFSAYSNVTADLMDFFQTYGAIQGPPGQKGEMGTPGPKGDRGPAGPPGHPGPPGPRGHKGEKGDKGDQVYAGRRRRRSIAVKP

T2: human collagen type III (Homo sapiens, UniProt P02461)
T2 construct: purchased Sigma
T2 sequence (P02461 154-1221 limits assumed): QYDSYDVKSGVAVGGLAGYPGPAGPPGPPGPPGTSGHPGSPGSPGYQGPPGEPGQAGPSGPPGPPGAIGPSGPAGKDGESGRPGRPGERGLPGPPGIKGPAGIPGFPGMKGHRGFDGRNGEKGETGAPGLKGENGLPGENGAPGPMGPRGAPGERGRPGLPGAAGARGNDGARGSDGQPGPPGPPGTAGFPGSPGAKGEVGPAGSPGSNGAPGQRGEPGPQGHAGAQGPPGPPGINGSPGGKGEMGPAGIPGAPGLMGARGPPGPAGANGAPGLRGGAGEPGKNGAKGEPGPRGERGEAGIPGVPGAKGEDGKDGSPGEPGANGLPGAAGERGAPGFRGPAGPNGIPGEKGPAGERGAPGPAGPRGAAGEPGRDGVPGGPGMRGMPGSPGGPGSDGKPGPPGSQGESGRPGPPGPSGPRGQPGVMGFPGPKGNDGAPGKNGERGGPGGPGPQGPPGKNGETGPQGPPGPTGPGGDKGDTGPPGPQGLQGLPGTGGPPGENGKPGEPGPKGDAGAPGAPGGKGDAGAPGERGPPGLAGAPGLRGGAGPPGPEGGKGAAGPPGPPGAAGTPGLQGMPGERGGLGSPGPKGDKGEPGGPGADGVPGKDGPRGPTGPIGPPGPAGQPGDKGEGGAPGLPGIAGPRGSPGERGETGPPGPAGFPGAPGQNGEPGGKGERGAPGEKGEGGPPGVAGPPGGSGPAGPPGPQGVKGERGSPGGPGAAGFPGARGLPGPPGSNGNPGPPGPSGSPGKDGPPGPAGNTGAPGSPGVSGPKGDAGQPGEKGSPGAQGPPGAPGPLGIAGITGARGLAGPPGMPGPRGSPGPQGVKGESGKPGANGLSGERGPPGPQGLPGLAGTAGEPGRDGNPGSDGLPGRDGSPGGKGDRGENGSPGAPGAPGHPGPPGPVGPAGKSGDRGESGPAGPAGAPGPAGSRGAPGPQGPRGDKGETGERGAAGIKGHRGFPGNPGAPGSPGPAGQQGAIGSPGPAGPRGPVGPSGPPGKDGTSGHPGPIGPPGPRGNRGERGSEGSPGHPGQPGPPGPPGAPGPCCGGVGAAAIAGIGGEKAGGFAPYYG

B1: hLAIR-1-IgG: Chimeric protein of human LAIR-1 fused to the Fc region of human IgG1 (protein)
chain: QEEDLPRPSISAEPGTVIPLGSHVTFVCRGPVGVQTFRLERDSRSTYNDTEDVSQASPSESEARFRIDSVREGNAGLYRCIYYKPPKWSEQSDYLELLVKESSGGPDSPDTEPGSSAGPTQRPSDNSHNEHAPASQGLKAEHLY
modifications: left off: a dimerising Fc or GST
notes: Chimeric protein of human LAIR-1 fused to the Fc region of human IgG1
B2: wild-type LAIR-2: wild-type LAIR-2 protein in concentrated supernatant from LAIR-2-transfected 293T cells (protein)
chain: QEGALPRPSISAEPGTVISPGSHVTFMCRGPVGVQTFRLEREDRAKYKDSYNVFRLGPSESEARFHIDSVSEGNAGLYRCLYYKPPGWSEHSDFLELLVKGTVPGTEASGFDAP

Columns and labels:
human collagen XVII = target: T1, human collagen XVII; assay: LAIR fusion protein staining of Ba/F3 cells transfected with human collagen XVII; format: binding
Procedure: Chimeric proteins of rat, mouse, and human LAIR-1 or human LAIR-2 fused to the Fc region of human IgG1 were prepared and cell lines were stained with these reagents in the absence or presence of blocking antibodies as described previously^11. When indicated, cells were incubated for 1 h with 100 units/ml chromatography purified C. histolyticum collagenase Type VII (Sigma) prior fusion-protein staining.

human collagen type III = target: T2, human collagen type III; assay: Surface plasmon resonance (BIAcore) binding of LAIR-IgG fusion proteins to immobilized collagen III
Procedure: (§1) Surface plasmon resonance (BIAcore) binding studies were performed using a BIAcore2000 system (BIAcore AB, Uppsala, Sweden). Approximately 2000-3000 response units (RU) of acid-soluble human collagen type I or III (Sigma) were immobilized on a CM5 biosensor chip using the amine coupling kit as instructed by the supplier. Immobilized triple-helical peptides composed of GCO(GPO)10GCOG-NH2 ((GPO)10, also known as collagen-related peptide, CRP^6) and GCP(GPP)10GCPG-NH2 ((GPP)10) were described previously^6. Approximately 250 RU (GPP)10 or (GPO)10 peptide trimers were immobilized using a cysteine coupling kit according manufacturers instructions. Analysis was performed in buffer (125 mM NaCl, 2.5 mM CaCl2, 0.005% (v/v) Tween 20, and 25 mM Hepes, (pH 7.4)) at 25° C. at a flow rate of 20 μl/min for collagen I and III interaction-studies and 5 μl/min for the immobilized peptides. […] Increasing concentrations of hLAIR-1-IgG were injected and allowed to reach an equilibrium plateau for 10 minutes. The delay between injections was 13 min, during which time the biosensor chip was flushed with buffer. In case of peptide-binding studies, biosensor chips were regenerated by injection of 0.1 M H3PO4 (2 min, 5 μl/min).
(§2) Dissociation constants (Kd) and the number of binding sites expressed as the response at infinite hLAIR-1-IgG concentration (Bmax) were calculated as follows. First, the response at equilibrium (Req) was calculated for each association curve. Subsequently, Kd and Bmax were determined from the binding isotherms (Req plotted against hLAIR-1-IgG concentration) by fitting equation Req=Bmax*[hLAIR-1-IgG]/(Kd+[hLAIR-1-IgG]). The fit was calculated using computer program GraphPad Prism (GraphPad Prism version 3.00 for Windows; GraphPad Software, San Diego, Calif., USA). […]
(§3) The surface plasmon resonance binding studies were performed as described before(15). LAIR-2-IgG dimer concentration was calculated based on a theoretical mass of 82.5 kDa.

human collagen type I = target: T3, human collagen type I (Homo sapiens, UniProt P02452+P08123); assay: Surface plasmon resonance (BIAcore) binding of LAIR-IgG fusion proteins to immobilized collagen I
T3 construct: purchased Sigma
T3 sequence (P02452 162-1218 limits assumed): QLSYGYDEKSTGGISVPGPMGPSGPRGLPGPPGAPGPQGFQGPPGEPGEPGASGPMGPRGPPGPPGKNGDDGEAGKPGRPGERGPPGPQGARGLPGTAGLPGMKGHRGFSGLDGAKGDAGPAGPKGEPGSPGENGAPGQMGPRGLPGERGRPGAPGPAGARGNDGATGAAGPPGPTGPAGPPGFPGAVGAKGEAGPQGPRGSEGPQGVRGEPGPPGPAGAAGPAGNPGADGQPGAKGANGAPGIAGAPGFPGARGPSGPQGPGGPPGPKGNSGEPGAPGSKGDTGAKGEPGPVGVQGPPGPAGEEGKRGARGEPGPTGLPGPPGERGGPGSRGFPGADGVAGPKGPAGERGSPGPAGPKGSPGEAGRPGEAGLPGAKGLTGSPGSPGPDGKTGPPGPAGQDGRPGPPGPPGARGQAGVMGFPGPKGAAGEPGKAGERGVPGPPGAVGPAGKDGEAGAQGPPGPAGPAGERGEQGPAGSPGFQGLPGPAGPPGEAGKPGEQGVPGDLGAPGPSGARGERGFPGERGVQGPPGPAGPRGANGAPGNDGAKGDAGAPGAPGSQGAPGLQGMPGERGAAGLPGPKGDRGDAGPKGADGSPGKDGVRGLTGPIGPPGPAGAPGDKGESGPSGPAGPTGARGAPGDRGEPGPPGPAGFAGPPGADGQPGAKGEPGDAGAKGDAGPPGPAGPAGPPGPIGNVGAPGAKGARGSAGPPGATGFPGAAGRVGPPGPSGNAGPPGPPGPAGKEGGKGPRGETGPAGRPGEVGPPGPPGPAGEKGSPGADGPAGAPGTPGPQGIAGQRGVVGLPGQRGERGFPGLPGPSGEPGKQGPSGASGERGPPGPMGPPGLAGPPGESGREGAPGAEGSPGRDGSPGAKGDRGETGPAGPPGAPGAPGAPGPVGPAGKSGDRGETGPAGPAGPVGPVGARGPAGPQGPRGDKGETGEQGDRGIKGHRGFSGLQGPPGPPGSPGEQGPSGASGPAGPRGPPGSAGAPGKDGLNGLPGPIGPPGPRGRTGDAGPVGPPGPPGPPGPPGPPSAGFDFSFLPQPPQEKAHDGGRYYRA
T3 sequence (P08123 80-1119 limits assumed): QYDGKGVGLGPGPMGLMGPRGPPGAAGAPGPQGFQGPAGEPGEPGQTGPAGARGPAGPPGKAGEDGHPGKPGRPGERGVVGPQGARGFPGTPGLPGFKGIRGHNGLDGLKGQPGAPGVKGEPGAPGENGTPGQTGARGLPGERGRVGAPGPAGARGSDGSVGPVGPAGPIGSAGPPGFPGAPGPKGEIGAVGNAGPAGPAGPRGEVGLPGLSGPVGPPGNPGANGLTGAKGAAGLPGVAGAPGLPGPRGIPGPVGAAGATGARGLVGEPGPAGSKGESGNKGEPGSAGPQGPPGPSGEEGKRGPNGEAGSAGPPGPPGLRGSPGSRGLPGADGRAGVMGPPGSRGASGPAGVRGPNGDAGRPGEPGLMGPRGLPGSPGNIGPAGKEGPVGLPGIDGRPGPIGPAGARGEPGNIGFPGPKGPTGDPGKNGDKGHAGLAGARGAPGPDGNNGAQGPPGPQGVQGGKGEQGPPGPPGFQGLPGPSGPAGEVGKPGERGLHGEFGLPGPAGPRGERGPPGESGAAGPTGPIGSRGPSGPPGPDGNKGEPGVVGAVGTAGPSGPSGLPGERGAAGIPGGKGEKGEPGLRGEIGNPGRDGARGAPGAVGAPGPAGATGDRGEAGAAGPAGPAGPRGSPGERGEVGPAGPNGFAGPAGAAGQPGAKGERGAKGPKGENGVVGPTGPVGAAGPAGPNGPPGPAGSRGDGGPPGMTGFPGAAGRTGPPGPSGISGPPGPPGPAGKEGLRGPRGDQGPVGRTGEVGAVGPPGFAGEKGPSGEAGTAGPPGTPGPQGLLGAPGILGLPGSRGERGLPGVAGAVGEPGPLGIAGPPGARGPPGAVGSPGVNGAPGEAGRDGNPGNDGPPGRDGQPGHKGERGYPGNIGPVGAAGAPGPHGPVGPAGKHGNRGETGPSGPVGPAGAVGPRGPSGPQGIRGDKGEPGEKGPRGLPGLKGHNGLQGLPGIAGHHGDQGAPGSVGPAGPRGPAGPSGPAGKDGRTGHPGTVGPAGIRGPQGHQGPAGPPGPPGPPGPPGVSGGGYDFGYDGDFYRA
Procedure: as §1, §2, §3

[1] = test system: endogenous hLAIR-1 ligand(s) on HT29 cells; assay: Fusion protein blocking study on HT29 cells (flow cytometry); format: cell-based, human
Procedure: For fusion protein blocking studies, chimeric proteins of the extracellular domain of hLAIR-1 or LAIR-2 fused to the Fc region of human IgG1 were prepared as described previously(19). HT29 cells were pre-treated with 10% normal mouse serum to block aspecific interactions. Subsequently, HT29 cells were incubated with unlabeled hLAIR-1-IgG or LAIR-2-IgG for 10 minutes at room temperature and subsequently incubated with biotinylated hLAIR-1-IgG or LAIR-2-IgG for 30 minutes at room temperature. Binding of biotinylated proteins was detected with allophycocyanin (APC) conjungated streptavidin (BD Biosciences, San Diego, Calif.) and cells were analyzed by flow cytometry (FACSCalibur™, BD).

[2] = test system: hLAIR-1/collagen interaction; assay: Blocking of binding of hLAIR-1 expressing K562 cells to plate-bound collagens I and III; format: cell-based, human; details: pre-incubation of plate-bound collagens
Procedure: Purified commercial collagens I, III (Sigma), II (Chemicon International), or BSA (100 μl/well, 20 μg/ml in PBS, 2 mM acetic acid) were coated overnight at 4° C. in 96-well MAXIsorp (Nunc) flat-bottom plates. After washings, wells were blocked with 1% (w/v) BSA. Meanwhile, 5×10^6 cells/ml wild type K562 cells or K562 transfectants were fluorescently labeled for 30 min at 37° C. with 5 μM calceine AM (Molecular Probes) in PBS. Cells were washed twice with RPMI/1% FCS and 100 μl medium of 1.5×10^6 cells/ml cells was added to each well and plates were incubated at 37° C. for 2 h. Input fluorescence was determined using a fluorescence plate reader (Fluoroskan Ascent, Thermo Labsystems), the plates were firmly flicked and washed for six times in culture medium. The retained fluorescence was determined for each well as a percentage of input fluorescence.
96-well MAXIsorp flat-bottom plates (Nunc) were coated overnight at 4° C. with purified collagens I or III (Sigma, 2 and 5 μg/ml respectively) or BSA (5 μg/ml) in 100 μl PBS, supplemented with 2 mM acetic acid. 5×10^6 cells/ml wild-type K562 or K562 stably transfected with hLAIR-1 were assayed for their capacity to adhere to the collagens in the 96 well plates as described before(15).

Row | Molecule | binding to Ba/F3 cells stably transfected with human collagen XVII (human collagen XVII) | binding to collagen III (in words) (human collagen type III) | number of LAIR molecules / binding sites per single triple-helical collagen III molecule (Bmax) (human collagen type III; from Bmax of binding isotherm) | dissociation from collagen (in words) (human collagen type III; hLAIR-1-IgG: collagen I and III, LAIR-2-IgG: collagen III, collagen I comparable) | binding to collagen I (in words) (human collagen type I) | higher affinity as compared to most IgSF-members interacting with their ligands (human collagen type I; collagen I and III) | number of LAIR molecules / binding sites per single triple-helical collagen I molecule (Bmax) (human collagen type I; from Bmax of binding isotherm) | biotinylated LAIR-2-IgG staining of HT29 cells after pre-incubation [1] | blocking of binding of hLAIR-1 expressing K562 cells to plate-bound collagens I and III [2]
1 | B1 | specific binding | high affinity | ~9.7 | relatively slow dissociation | high affinity | 20-1000 fold | approximately 10.4 | reduced | –
2 | B2 | – | – | – | – | – | – | – | – | blocked
